{"source": "patent US10005846", "about": "(LIFEARC, dated 2018)", "binders": {"B1": {"name": "AB1 murine monoclonal antibody (antibody, V domains shown)", "VH": "EVQLVESGGGLVKPGGSLKLSCAASGFTLSSSAMSWVRQTPDRRLEWVATISVGGGKTYYPDSVKGRFTISRDNAKNTLYLQMNSLRSEDTAMYYCAKLISLYWGQGTTLTVSS", "VL": "DIKMTQSPSSMYASLGERVTITCKASQDINSYLTWFQQKPGKSPKTLIYRTNRLFDGVPSRFSGSGSGQDFFLTISSLEYEDMGIYYCLQYDDFPYTFGGGTKLEIK", "notes": "Mouse hybridoma IgG; heavy chain amplified with constant region primer MHCG1, kappa light chain; also called mAB003"}, "B2": {"name": "AG9 murine monoclonal antibody (antibody, V domains shown)", "VH": "EVQLQQSGPELVKPGASVKMSCRASGYTFTTYVIHWVKQKPGQGLEWIGYINPYNDGARYNEKFKGKATLTSDKSSTTAYMELSSLTSEDSAVYYCARLSSDYWGQGTTLTVSS", "VL": "DVLMTQNPLSLPVSLGDQASISCRSSRSIEHSNGNTYLEWYLQKPGQSPKFLIYKVSNRFSGVPDRFSGSGSGTDFTLRISSVEAEDLGVYYCFQGSHVPFTFGGGTKLEIK", "notes": "Mouse hybridoma IgG; heavy chain amplified with primer MHCG1, kappa light chain"}, "B3": {"name": "DC1 murine monoclonal antibody (antibody, V domains shown)", "VH": "EVQLVESGGGLVKPGGSLKLSCAASGFTLSTHAMSWVRQTPEKRLEWVATISSGGRSTYYPDSVKGRFTISRDNVKNTLYLQLSSLRSEDTAVYFCARLISTYWGQGTTLTVSS", "VL": "B1 VL with K3T, M11I, T46I, R50L, T51V, F55V, F71Y, F72A", "notes": "Mouse hybridoma IgG; heavy chain amplified with primer MHCG1, kappa light chain; also called mDC001"}, "B4": {"name": "DH2 murine monoclonal antibody (antibody, V domains shown)", "VH": "not shown", "VL": "QIVLTQSPAIMSASPGEKVTMTCSASSSVSYMYWYQQKPGSSPRLLIYDTSNLASGVPVRFSGSGSGTSYSLTISRMEAEDAATFYCQQWSSSPLTFGAGTKLELK", "notes": "Mouse hybridoma IgG; heavy chain amplified with primer MHCG2B, kappa light chain; also called mDH001"}, "B5": {"name": "DD9 murine monoclonal antibody (antibody, V domains shown)", "VH": "not shown", "VL": "B4 VL with S30D, E78G, F85Y, S91N", "notes": "Mouse hybridoma IgG; heavy chain amplified with primer MHCG2A, kappa light chain; also called mDD9001"}, "B6": {"name": "EH6 murine monoclonal antibody (antibody, V domains shown)", "VH": "B2 VH with R23K, T31S, I34M, Y50F, A58T, R59K, S75A, L99F, D102G", "VL": "B2 VL with N7T, R27Q, E30V, F51L, R79K, S82R, E84G, F94L, G96V, G105S", "notes": "Mouse hybridoma IgG; heavy chain amplified with primer MHCG2B, kappa light chain"}, "B7": {"name": "AH3 murine monoclonal antibody (antibody, V domains shown)", "VH": "B2 VH", "VL": "B2 VL", "notes": "as for B6"}, "B8": {"name": "BB7 murine monoclonal antibody (antibody, V domains shown)", "VH": "AVQLVESGGGLVKPGGSLKLSCAASGIIFSSSAMSWVRQTPEKRLEWVATISSGGRSTYYPDSVKGRFTVSRDSAKNTLYLQMDSLRSEDTAIYYCAKLISPYWGQGTTLTVSS", "VL": "B1 VL with D1A, T20I, R50L, F55M, D70E, F72L, S77G, Y80H, D92V", "notes": "Mouse hybridoma IgG; heavy chain amplified with primer MHCG1, kappa light chain; also called mBB001"}, "B9": {"name": "JE12 murine monoclonal antibody (antibody, V domains shown)", "VH": "B2 VH with R23K, T28R, T31S, I34M, P41S, R59K, T77S", "VL": "B2 VL with R27Q, S32I, S82R, V90I", "notes": "as for B2"}}, "note": "Changes are numbered by the printed parent chain.", "data": [{"molecular_target": "T1, human transglutaminase type 2 (TG2) (human, UniProt P21980 1-687)", "T1 sequence": "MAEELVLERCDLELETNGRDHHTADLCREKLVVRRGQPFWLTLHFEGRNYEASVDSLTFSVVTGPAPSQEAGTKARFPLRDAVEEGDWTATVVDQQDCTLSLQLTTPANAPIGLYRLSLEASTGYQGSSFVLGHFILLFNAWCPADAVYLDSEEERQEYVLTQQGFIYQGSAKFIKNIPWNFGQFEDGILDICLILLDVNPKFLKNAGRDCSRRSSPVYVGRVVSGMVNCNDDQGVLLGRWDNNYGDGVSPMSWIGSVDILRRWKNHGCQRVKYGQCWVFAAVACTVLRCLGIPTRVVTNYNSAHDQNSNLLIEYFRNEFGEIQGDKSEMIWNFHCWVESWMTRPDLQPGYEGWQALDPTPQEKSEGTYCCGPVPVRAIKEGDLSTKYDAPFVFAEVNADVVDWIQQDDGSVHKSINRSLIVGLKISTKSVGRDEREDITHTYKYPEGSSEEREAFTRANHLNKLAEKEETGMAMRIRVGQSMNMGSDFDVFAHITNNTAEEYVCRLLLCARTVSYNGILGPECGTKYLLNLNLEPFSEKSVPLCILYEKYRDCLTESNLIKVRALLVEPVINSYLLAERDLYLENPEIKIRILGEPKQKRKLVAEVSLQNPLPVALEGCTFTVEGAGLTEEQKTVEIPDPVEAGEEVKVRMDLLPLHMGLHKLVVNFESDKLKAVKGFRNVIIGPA", "assay": "cell-based or functional assay", "units": {"IC50 of TG2 activity, 3H putrescine incorporation": "mg/ml IgG per ng TG2"}, "values": [{"binder": "B1", "IC50 of TG2 activity, 3H putrescine incorporation": "1.09e-05"}, {"binder": "B2", "IC50 of TG2 activity, 3H putrescine incorporation": "4.87e-05"}, {"binder": "B3", "IC50 of TG2 activity, 3H putrescine incorporation": "1.23e-05"}, {"binder": "B4", "IC50 of TG2 activity, 3H putrescine incorporation": "6.7e-05"}, {"binder": "B5", "IC50 of TG2 activity, 3H putrescine incorporation": "5.24e-05"}, {"binder": "B6", "IC50 of TG2 activity, 3H putrescine incorporation": "6.9e-05"}, {"binder": "B7", "IC50 of TG2 activity, 3H putrescine incorporation": "7.8e-05"}, {"binder": "B8", "IC50 of TG2 activity, 3H putrescine incorporation": "1.59e-05"}]}, {"molecular_target": "T2, TG3 (human, UniProt Q08188)", "T2 construct": "recombinant, Zedira; also called recombinant human TG3; Epidermal Transglutaminase", "T2 sequence (enzyme, looked up)": "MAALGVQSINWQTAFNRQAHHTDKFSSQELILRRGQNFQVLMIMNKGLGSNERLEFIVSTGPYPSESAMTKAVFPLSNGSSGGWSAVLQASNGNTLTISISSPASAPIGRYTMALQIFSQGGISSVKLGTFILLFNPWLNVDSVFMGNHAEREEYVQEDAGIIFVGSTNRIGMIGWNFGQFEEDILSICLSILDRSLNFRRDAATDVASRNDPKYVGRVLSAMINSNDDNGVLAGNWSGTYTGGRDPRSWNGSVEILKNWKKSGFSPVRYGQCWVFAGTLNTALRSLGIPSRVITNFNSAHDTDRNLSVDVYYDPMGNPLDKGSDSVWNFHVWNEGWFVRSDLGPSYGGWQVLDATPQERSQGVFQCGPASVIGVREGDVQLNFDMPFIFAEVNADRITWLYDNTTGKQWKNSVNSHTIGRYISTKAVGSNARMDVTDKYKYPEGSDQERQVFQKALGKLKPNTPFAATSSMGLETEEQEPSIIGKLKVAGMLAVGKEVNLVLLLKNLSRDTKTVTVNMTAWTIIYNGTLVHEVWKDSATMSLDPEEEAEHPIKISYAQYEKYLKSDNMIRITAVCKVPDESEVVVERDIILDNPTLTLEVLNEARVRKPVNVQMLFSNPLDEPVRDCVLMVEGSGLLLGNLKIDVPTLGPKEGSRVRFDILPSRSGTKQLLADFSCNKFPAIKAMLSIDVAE", "assay": "ELISA, hybridoma conditioned medium, plates coated with recombinant TG (100 ng/well) [panel A]", "procedure": "(§1) Conditioned medium or purified IgG were tested for reactivity to transglutaminase family members. The ability of each to bind to each transglutaminase (TG1, TG2, TG3, TG5, TG7 and Factor XIIIa; all Zedira) was determined using a plate binding assay. Microtiter plates (Costar, Cambridge, UK) were coated with recombinant TG (Zedira, Darmstadt, Germany) in 50 μl of 0.1 M bicarbonate/carbonate buffer (pH 9.6) overnight at 4° C. Plates were blocked for 2 h at 37° C. with 200 μl PBS containing 3% w/v BSA. Plates were washed three times with PBS containing 0.05% Tween 20 (washing buffer) and 100 μl of diluted conditioned medium (dilution 1:5 to 1:20) or purified anti-TG2 catalytic core mAbs was added. Plates were incubated for a further 1 h at room temperature. The washing step was repeated and anti-mouse gamma chain-horseradish peroxidase (1:5000) in PBS containing 0.05% Tween 20 (v:v) and 1% BSA (w:v) (Sigma, Poole UK) was added for 1 h. […] The reaction was stopped by adding 25 μl of 0.1 M H_2SO_4 and the absorbance at 450 nm was determined.", "values": [{"binder": "B1", "binding result": "no binding"}, {"binder": "B2", "binding result": "no binding"}, {"binder": "B9", "binding result": "no binding"}, {"binder": "B4", "binding result": "no binding"}, {"binder": "B5", "binding result": "no binding"}, {"binder": "B6", "binding result": "no binding"}, {"binder": "B7", "binding result": "no binding"}, {"binder": "B8", "binding result": "no binding"}]}, {"molecular_target": "T3, TG13", "T3 construct": "also called Factor XIIIa", "T3 chain": "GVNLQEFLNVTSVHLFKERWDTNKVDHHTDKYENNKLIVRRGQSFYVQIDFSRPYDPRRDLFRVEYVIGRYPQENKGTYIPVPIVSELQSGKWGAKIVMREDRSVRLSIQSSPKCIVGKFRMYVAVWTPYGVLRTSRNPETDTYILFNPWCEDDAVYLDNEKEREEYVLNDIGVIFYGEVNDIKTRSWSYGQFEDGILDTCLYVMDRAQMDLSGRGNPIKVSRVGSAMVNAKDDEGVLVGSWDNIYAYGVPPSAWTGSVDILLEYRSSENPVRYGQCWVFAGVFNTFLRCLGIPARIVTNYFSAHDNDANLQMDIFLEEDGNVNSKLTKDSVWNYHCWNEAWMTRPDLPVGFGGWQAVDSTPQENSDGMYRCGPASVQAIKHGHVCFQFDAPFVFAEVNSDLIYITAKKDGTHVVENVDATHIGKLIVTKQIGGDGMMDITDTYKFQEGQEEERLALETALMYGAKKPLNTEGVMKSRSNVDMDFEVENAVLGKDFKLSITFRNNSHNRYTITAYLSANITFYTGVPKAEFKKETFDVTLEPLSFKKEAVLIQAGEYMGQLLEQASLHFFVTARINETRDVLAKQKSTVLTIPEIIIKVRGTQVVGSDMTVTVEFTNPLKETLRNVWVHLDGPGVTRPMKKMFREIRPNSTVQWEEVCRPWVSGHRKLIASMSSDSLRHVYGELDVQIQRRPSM", "assay": "ELISA, hybridoma conditioned medium, plates coated with recombinant TG (100 ng/well) [panel A]", "procedure": "as §1", "values": [{"binder": "B1", "binding result": "no binding"}, {"binder": "B2", "binding result": "no binding"}, {"binder": "B9", "binding result": "no binding"}, {"binder": "B4", "binding result": "no binding"}, {"binder": "B5", "binding result": "no binding"}, {"binder": "B6", "binding result": "no binding"}, {"binder": "B7", "binding result": "no binding"}, {"binder": "B8", "binding result": "no binding"}]}]}
